How the values were obtained:
Test in all cases: cell-based or functional assay
[1] = target: MAPK10 (JNK3) Mitogen-activated protein kinase 10 (UniProt P53779 1-464, limits assumed)
DYRK4 = target: T1, DYRK4 (UniProt Q9NR20 1-520, limits assumed)
T1 sequence (looked up): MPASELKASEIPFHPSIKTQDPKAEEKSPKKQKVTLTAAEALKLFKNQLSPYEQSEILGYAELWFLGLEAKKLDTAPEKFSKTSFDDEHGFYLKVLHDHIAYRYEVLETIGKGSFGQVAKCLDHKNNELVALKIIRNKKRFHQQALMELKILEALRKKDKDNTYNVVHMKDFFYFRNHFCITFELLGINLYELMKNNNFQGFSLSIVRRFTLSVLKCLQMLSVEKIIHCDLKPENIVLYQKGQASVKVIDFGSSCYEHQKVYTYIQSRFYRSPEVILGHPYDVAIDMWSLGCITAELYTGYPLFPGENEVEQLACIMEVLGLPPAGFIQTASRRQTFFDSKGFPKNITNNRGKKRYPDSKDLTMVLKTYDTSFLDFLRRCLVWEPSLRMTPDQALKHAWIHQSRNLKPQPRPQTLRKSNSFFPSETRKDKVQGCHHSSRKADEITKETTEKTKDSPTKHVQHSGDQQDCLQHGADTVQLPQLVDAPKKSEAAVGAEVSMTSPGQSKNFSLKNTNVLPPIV

[2] = target: RPS6KA1 (RSK1) Ribosomal protein S6 kinase, 90 kDa, polypeptide 1 (UniProt Q15418 1-735, limits assumed)
SRPK2 = SRPK2 (UniProt P78362 1-688, limits assumed)
[3] = target: RAF1 (cRAF) Y340D Y341D c-Raf (UniProt P04049 306-648, limits assumed)
NEK2 = target: T2, NEK2 (UniProt P51955 1-445, limits assumed)
T2 sequence (looked up): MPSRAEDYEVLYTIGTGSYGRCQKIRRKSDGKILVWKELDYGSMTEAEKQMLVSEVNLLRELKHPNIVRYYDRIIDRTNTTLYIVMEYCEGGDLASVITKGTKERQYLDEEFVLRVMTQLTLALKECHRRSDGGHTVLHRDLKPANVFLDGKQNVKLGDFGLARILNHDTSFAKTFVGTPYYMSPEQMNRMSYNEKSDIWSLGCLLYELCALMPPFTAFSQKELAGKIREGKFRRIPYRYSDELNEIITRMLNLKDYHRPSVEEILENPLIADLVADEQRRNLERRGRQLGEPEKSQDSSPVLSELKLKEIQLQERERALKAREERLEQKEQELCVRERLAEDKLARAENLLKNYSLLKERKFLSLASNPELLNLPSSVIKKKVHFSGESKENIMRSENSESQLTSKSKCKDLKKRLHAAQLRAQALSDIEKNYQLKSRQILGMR

DAPK3 (ZIPK) = DAPK3 (ZIPK) (UniProt O43293 1-454, limits assumed)
PRKCN (PKD3) = target: T3, PRKCN (PKD3) (UniProt O94806 1-890, limits assumed)
T3 sequence (looked up): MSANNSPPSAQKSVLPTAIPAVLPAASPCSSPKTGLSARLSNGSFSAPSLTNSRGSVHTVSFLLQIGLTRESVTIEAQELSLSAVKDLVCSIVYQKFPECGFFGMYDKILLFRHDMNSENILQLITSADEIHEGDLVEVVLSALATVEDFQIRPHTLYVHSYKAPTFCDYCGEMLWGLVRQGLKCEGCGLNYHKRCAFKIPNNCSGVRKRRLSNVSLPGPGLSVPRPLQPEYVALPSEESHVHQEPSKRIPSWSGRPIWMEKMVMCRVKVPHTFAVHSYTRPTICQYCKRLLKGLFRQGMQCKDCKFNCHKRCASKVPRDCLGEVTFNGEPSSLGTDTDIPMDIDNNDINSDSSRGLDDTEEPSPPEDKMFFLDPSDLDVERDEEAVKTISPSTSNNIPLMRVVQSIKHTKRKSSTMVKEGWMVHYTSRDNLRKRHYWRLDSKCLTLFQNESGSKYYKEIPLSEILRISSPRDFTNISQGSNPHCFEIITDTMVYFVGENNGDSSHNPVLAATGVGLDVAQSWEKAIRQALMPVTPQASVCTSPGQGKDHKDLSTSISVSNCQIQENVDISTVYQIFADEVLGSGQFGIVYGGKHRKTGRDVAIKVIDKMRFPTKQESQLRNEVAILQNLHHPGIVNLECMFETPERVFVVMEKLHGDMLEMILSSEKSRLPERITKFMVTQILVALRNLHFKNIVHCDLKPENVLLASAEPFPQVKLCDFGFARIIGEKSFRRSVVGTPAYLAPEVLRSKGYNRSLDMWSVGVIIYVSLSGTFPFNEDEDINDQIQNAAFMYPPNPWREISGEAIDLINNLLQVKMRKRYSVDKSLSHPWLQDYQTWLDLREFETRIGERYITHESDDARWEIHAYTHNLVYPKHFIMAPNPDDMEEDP
Also: test concentration or dose not given here.

B1: D3 peptide (peptide)
peptide: SGRPPMIVWFNRPFLIAVSHTHGQTILFMAKVINPVGA
% Inhibition mean [1]: 90.7%
% Inhibition mean (DYRK4): 61.2%
% Inhibition mean [2]: 98.3%
% Inhibition mean (SRPK2): 79.2%
% Inhibition mean [3]: 94.6%
% Inhibition mean (NEK2): 89.6%
% Inhibition mean (DAPK3 (ZIPK)): 62%
% Inhibition mean (PRKCN (PKD3)): 69.6%

— patent US20100184658A1 (published 2010)
